Measurements taken from US20120225060A1.
Where two headings read alike, the source gives them in different places.

Tests used:
[1] = molecular target: recombinant human IL-6R-extracellular domain (ECD) (human) (UniProt P08887); test: SPR
[2] = molecular target: recombinant human IL-6R-extracellular domain (ECD) (human) (UniProt P08887); test: receptor-ligand ELISA, blocking of IL-6 binding to IL-6R
[3] = molecular target: IL-6R on human myeloma U266B1 cells (human) (UniProt P08887); test: FACS on U266B1 cells
[4] = molecular target: recombinant human IL-6R-extracellular domain (ECD) (human) (UniProt P08887); test: receptor-ligand ELISA, blocking of IL-6 binding to IL-6R; remark: listed apart in the source
[5] = molecular target: IL-6R on human myeloma U266B1 cells (human) (UniProt P08887); test: cell-based or functional assay
[6] = molecular target: IL-6R on human myeloma U266B1 cells (human) (UniProt P08887); test: FACS binding to IL-6R on U266B1 cells
[7] = molecular target: IL-6R on human myeloma U266B1 cells (human) (UniProt P08887); test: FACS binding to IL-6R on U266B1 cells; remark: listed apart in the source
[8] = molecular target: recombinant human IL-6R-extracellular domain (ECD) (human) (UniProt P08887); test: direct ELISA on IL-6R
[9] = molecular target: IL-6R on human myeloma U266B1 cells (human) (UniProt P08887); test: cell-based or functional assay; remark: listed apart in the source

Sequence of IL-6R on human myeloma U266B1 cells (human) (P08887 20-468): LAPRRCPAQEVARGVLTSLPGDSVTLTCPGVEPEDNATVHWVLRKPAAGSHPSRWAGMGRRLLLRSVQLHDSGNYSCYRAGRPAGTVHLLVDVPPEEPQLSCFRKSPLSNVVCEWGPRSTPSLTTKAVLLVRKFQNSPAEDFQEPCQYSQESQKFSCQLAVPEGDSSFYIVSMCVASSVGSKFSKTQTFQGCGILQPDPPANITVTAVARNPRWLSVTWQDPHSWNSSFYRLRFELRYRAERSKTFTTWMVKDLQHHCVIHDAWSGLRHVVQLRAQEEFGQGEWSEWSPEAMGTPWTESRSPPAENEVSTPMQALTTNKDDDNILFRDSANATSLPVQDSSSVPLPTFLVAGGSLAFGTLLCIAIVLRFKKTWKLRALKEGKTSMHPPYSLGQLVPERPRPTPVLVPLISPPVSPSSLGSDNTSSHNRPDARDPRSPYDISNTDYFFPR
Sequence of recombinant human IL-6R-extracellular domain (ECD) (human) (P08887 20-365): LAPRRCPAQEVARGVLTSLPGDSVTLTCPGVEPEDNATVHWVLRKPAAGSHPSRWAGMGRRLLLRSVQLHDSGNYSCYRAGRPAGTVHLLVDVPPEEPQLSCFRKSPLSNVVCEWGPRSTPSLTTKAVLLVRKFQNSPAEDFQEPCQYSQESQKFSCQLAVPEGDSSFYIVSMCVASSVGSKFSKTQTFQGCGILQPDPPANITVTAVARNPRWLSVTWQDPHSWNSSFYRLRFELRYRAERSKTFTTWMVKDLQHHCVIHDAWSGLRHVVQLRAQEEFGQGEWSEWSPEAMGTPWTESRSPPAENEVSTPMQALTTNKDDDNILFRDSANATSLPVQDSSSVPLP

- Kd [1]: 3.85 nM
- koff [1]: 0.00097 s⁻¹
- kon [1]: 252000 M⁻¹ s⁻¹
- IC50 [2]: 0.56 µg/mL
- EC50 (read off the curve) [3]: 0.6 µg/mL
- IC50 [4]: 1.1 µg/mL
- TF-1 proliferation IC50 [5]: 0.04 µg/mL
- EC50 [6]: 0.206 µg/mL
- EC50 [7]: 0.602 µg/mL
- EC50 [8]: 0.0458 µg/mL
- TF-1 proliferation IC50 [9]: 0.214 µg/mL
B1: Tocilizumab (antibody, part only; not given: constant regions, V domains shown, not shown: another chain or arm of the molecule)
VH: QVQLQESGPGLVRPSQTLSLTCTVSGYSITSDHAWSWVRQPPGRGLEWIGYISYSGITTYNPSLKSRVTMLRDTSKNQFSLRLSSVTAADTAVYYCARSLARTTAMDYWGQGSLVTVSS
VL: DIQMTQSPSSLSASVGDRVTITCRASQDISSYLNWYQQKPGKAPKLLIYYTSRLHSGVPSRFSGSGSGTDFTFTISSLQPEDIATYYCQQGNTLPYTFGQGTKVEIK
